According to article doi:10.1101/2023.06.21.546012 (bioRxiv, 2023):

T1: Tom40 (S. cerevisiae (endogenous in the …, UniProt P23644 1-387))
T1 sequence: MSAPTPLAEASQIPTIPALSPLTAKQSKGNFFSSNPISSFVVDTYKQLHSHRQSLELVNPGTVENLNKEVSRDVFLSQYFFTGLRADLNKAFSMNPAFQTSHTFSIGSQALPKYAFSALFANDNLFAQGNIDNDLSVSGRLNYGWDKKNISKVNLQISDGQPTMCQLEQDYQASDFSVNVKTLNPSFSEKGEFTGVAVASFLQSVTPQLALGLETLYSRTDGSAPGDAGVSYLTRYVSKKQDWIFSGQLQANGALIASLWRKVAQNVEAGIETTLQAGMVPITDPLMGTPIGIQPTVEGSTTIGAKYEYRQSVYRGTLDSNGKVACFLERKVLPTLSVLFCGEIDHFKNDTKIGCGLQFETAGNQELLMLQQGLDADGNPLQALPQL


target: T1, Tom40; experiment: cryo-EM structure

| Binder | binding result |
| --- | --- |
| Tom22 with a C-terminal His10 tag (natural protein) MVELTEIKDDVVQLDEPQFSRNQAIVEEKASATNNDVVDDEDDSDSDFEDEFDENETLLDRIVALKDIVPPGKRQTISNFFGFTSSFVRNAFTKSGNLAWTLTTTALLLGVPLSLSILAEQQLIEMEKTFDLQSDANNILAQGEKDAAATAN | binds |
| MFGLPQQEVSEEEKRAHQEQTEKTLKQAAYVAAFLWVSPMIWHLVKKQWK (natural protein) [Tom5] | binds |

More lines, now with the values ahead:

| binding result | Binder |
| --- | --- |
| binds | Tom6 (natural protein) MDGMFAMPGAAAGAASPQQPKSRFQAFKESPLYTIALNGAFFVAGVAFIQSPLMDMLAPQL |
| binds | Tom7 (natural protein) MSFLPSFILSDESKERISKILTLTHNVAHYGWIPFVLYLGWAHTSNRPNFLNLLSPLPSV |
